According to paper PMC3342958, “IDN2 and Its Paralogs Form a Complex Required for RNA–Directed DNA Methylation”:

T1: IDN2-a (XS+coiled-coil) (Arabidopsis thaliana, UniProt Q8VZ79 1-511)
T1 sequence: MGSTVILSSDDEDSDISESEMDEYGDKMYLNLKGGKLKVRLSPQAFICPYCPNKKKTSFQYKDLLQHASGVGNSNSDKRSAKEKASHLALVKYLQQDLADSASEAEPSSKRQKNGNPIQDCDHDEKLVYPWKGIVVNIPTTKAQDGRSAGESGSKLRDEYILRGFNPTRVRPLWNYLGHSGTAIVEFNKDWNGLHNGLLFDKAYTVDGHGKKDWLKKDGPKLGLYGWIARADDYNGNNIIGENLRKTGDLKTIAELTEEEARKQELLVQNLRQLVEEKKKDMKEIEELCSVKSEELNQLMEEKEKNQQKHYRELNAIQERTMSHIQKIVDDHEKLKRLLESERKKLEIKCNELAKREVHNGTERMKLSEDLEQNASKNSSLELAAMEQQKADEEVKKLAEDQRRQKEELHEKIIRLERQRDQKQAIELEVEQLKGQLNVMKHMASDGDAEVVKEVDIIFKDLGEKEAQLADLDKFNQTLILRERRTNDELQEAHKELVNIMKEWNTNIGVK

T2: IDN2 (Arabidopsis thaliana, UniProt Q8VZ79 1-647)
T2 sequence: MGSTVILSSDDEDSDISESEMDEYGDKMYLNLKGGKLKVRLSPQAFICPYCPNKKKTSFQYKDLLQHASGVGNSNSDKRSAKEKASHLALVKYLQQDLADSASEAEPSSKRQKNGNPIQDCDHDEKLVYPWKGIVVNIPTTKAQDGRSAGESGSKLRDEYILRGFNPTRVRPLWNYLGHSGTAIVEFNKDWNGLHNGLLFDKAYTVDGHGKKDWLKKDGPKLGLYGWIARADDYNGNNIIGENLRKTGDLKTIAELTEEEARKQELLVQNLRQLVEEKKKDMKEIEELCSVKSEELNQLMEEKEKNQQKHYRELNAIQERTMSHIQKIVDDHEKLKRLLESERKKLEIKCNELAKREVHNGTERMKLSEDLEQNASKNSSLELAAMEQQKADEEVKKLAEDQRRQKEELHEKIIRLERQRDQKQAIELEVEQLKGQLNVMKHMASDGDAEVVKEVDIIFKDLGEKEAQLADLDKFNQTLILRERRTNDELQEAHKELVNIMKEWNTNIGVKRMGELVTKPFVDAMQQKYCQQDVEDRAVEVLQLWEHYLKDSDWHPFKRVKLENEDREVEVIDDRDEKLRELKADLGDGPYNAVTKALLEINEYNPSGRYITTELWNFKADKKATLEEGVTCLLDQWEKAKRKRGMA

T3: IDP1 (Arabidopsis thaliana, UniProt Q9S9P3 1-634)
T3 sequence: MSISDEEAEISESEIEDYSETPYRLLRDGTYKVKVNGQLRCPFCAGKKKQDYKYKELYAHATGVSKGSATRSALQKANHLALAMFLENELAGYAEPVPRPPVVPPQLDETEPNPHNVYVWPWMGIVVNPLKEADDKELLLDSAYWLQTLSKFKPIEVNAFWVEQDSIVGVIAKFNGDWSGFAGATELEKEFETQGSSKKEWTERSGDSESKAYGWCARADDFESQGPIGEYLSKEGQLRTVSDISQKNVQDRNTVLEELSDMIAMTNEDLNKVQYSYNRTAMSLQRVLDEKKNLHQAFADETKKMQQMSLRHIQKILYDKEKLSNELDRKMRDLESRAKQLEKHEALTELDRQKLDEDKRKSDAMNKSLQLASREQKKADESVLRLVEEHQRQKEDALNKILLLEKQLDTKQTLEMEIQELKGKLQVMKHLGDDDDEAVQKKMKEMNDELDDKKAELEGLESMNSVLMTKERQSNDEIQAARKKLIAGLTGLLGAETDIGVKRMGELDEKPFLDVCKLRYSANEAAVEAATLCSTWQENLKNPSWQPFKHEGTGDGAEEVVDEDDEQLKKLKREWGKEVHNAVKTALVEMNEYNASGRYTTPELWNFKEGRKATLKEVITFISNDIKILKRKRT

T4: IDP2 (Arabidopsis thaliana, UniProt F4JH53 1-635)
T4 sequence: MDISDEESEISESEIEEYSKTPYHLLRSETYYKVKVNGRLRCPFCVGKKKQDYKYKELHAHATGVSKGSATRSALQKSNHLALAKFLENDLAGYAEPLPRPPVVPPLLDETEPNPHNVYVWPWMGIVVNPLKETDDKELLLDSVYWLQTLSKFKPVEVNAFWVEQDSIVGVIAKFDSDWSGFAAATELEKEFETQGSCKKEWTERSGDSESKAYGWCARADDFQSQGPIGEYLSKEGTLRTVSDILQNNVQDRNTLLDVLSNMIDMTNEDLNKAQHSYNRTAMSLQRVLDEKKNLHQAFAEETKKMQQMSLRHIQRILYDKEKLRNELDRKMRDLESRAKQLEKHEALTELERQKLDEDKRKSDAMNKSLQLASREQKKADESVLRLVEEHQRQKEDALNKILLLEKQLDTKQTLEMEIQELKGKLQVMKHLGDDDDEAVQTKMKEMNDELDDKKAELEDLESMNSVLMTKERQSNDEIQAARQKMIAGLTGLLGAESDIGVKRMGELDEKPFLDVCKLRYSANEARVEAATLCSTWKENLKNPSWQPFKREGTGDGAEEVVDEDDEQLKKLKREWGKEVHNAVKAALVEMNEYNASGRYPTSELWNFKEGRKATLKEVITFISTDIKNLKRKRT


Tests used:
IDN2-a (XS+coiled-coil) = molecular target: T1, IDN2-a (XS+coiled-coil); experiment: EMSA; 12.5 mM MgCl2; 25 mM HEPES pH 7.6, 50 mM KCl, 0.1 mM EDTA, 12.5 mM MgCl2, 1 mM DTT, 0.5% BSA, 5% glycerol, 2 ug protein, room temperature 30 min; 4% native PAGE; conditions: protein: recombinant, tags: His (pET30a), label: 5'-32P
IDN2 = molecular target: T2, IDN2; experiment: as above; conditions: protein: recombinant, tags: His (pET28a), label: 5'-32P
IDP1 = molecular target: T3, IDP1; experiment: EMSA; 12.5 mM MgCl2; up to 6.4 ug protein; 25 mM HEPES pH 7.6, 50 mM KCl, 0.1 mM EDTA, 12.5 mM MgCl2, 1 mM DTT, 0.5% BSA, 5% glycerol, 2 ug protein, room temperature 30 min; 4% native PAGE; conditions: protein: recombinant, tags: His (pET28a), label: 5'-32P
IDP2 = molecular target: T4, IDP2; experiment: as above; conditions: protein: recombinant, tags: His (pET28a), label: 5'-32P

| Binder | binding result (IDN2-a (XS+coiled-coil); 5' overhangs 2 nt at both ends) | binding result (IDN2; 5' overhangs 2 nt at both ends) | binding result (IDP1; 5' overhangs 2 nt at both ends) | binding result (IDP2; 5' overhangs 2 nt at both ends) | binding result (IDN2-a (XS+coiled-coil); blunt) | binding result (IDN2; blunt) | binding result (IDP1; blunt) | binding result (IDP2; blunt) |
| --- | --- | --- | --- | --- | --- | --- | --- | --- |
| RD29A dsRNA, 5' overhang (dsRNA) RNA 1: ACGCUUCAUACGUGUCCCUUUAUCUCUCUCAGUCU RNA 2: AGAGACUGAGAGAGAUAAAGGGACACGUAUGAAGC | binds | binds | no binding | no binding | – | – | – | – |
| RD29A dsRNA, blunt (dsRNA) RNA 1: ACGCUUCAUACGUGUCCCUUUAUCUCUCUCAGUCU RNA 2: AGACUGAGAGAGAUAAAGGGACACGUAUGAAGCGU | – | – | – | – | binds | binds | no binding | no binding |
